Assay [1] has as its target KDR on human umbilical vein endothelial cells (HUVEC) (human, UniProt P35968 20-1356). Briefly: cell-based or functional assay.
The target of assay [2] is T1, Flt-1-Fc fusion protein (UniProt P17948 27-756, limits assumed).
T1 construct: Bought from R&D Systems; also called immobilized Flt-1; not shown: Fc
The assay is described as follows: direct binding ELISA on immobilized Flt-1, detection with anti-E tag antibody-HRP, A450. On the procedure: (§1) Two assays were carried out to determine the dual antigen binding capability of the diabody. First, a cross-linking assay was used to investigate whether the diabody is capable of binding both of its target antigens simultaneously. Briefly, the diabody or its parent scFv were first incubated in a 96-well Maxi-sorp microtiter plate (Nunc, Roskilde, Denmark) precoated with Flt-1-Fc fusion protein (1 μg/ml×[…] per well overnight at 4° C.) at room temperature (RT) for 1 h. The plate was washed three times with PBS containing 0.1% Tween (PBST), followed by incubation with KDR-AP fusion protein at RT for additional 1 h. The plate-bound KDR-AP was then quantified by the addition of AP substrate, p-nitrophenyl phosphate (Sigma, St. Louis, Mo.), followed by reading of the absorbance at 405 nm (Lu, D. et al., 1999). In the second, direct binding assay, various amounts of diabody or scFv were added to KDR or Flt-1 coated 96-well plates and incubated at RT for 1 h, after which the plates were washed 3 times with PBST. The plates were then incubated at RT for 1 h with 100 μl of an anti-E tag antibody-HRP conjugate (Amersham Pharmacia Biotech). The plates were washed, peroxidase substrate added, and the absorbance at 450 nm read following the procedure described previously (Lu, D. et al., 1999).
(§2) The antigen binding efficiency of the diabody was determined on immobilized KDR and Flt-1. […]
On the technique in general: An ELISA detects its analyte on a solid surface through an enzyme-linked reagent.

The target of assay [3] is T2, soluble fusion protein KDR-alkaline phosphatase (AP) (human, UniProt P35968 20-764).
T2 construct: Expressed in stably transfected NIH 3T3 cells; also called KDR-AP; soluble KDR; not shown: alkaline phosphatase (AP)
Briefly: BIAcore SPR, KDR-AP immobilized on the chip, antibody injected. On the procedure:
(§3) The binding kinetics of the diabody and its parent scFv to KDR and Flt-1 were measured using a BIAcore biosensor (Pharmacia Biosensor). KDR-AP or Flt-1-Fc fusion protein was immobilized onto a sensor chip and soluble antibodies were injected at concentrations ranging from 1.5 nM to 100 nM. Sensorgrams were obtained at each concentration and were analyzed with, BIA Evaluation 2.0, a program to determine the rate constants kon and koff. The affinity constant, Kd, was calculated from the ratio of rate constants koff/kon.
A general note: SPR reads the build-up and loss of mass on a sensor chip optically.

Assay [4] has as its target T2, soluble fusion protein KDR-alkaline …. Briefly: direct binding ELISA on immobilized KDR, detection with anti-E tag antibody-HRP, A450. On the procedure: as §1, §2
Assay [5] deals with T1, Flt-1-Fc fusion protein. The assay is described as follows: BIAcore SPR, Flt-1-Fc immobilized on the chip, antibody injected. On the procedure:
as §3

The target of assay [6] is T1, Flt-1-Fc fusion protein. Briefly: blocking ELISA: antibody pre-mixed with Flt-1-Fc, transferred to immobilized PlGF; plate-bound Flt-1-Fc detected with anti-human Fc-HRP, A450. On the procedure:
The assays followed previously described protocols (Zhu, Z. et al., 1998; Lu, D. et al., 1999). Briefly, various amounts of the diabody or scFv were mixed with a fixed amount of KDR-AP (100 ng) or Flt-1-Fc fusion protein (50 ng) and incubated at RT for 1 h. The mixture were then transferred to 96-well microtiter plates precoated with VEGF₁₆₅ (200 ng/well) or PlGF (200 ng/well) and incubated at RT for an additional 2 h, after which the plates were washed 5 times with PBS. For the KDR-AP assay, the substrate for AP was added, followed by reading of the absorbance at 405 nm to quantify the plate-bound KDR-AP. For the Flt-1-Fc assay, the plate was incubated with a mouse anti-human Fc-HRP conjugate to quantify the plate-bound Flt-1-Fc.

Data on two molecules can be found in patent publication US20040242851A1 (published 2004).

T2 sequence (P35968 20-764): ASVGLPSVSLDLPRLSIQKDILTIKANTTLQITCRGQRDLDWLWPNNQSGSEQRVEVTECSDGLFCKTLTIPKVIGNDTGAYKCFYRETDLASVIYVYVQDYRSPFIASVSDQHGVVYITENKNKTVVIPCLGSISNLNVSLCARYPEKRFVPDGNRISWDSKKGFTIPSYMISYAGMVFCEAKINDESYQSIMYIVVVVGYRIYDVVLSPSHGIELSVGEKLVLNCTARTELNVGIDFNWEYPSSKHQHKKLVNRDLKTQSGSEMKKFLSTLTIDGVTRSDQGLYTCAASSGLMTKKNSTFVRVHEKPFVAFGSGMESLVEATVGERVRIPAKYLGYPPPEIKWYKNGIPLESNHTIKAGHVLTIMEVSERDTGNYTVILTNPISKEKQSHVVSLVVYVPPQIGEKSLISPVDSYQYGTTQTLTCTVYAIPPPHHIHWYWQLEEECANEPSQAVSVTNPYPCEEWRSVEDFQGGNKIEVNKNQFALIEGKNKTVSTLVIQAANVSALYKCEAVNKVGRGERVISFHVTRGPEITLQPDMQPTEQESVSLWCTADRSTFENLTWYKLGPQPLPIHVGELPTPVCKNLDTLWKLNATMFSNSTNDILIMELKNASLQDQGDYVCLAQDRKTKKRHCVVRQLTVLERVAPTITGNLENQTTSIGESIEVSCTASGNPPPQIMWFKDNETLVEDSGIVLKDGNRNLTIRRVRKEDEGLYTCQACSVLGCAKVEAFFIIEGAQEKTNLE
T1 sequence (P17948 27-756 limits assumed): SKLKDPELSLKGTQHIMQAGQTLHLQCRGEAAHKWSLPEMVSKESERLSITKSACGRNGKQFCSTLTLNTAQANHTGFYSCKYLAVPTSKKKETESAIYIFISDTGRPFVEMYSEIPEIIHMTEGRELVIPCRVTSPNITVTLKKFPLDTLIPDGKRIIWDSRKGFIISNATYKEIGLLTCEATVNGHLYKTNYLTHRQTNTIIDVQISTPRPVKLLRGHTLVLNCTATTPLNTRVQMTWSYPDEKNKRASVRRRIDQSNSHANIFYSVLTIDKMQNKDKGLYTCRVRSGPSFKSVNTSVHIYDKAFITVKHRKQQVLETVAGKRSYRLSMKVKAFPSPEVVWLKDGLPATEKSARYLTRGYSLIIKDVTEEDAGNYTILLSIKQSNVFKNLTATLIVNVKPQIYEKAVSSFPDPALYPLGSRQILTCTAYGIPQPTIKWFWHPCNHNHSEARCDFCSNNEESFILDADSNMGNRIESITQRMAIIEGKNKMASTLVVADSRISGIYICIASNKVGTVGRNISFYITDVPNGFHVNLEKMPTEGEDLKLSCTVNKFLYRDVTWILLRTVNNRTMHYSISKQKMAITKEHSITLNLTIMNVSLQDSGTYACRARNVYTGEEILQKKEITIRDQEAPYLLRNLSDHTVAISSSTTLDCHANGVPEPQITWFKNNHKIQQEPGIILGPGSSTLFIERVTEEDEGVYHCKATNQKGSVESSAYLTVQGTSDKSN
Sequence of KDR on human umbilical vein endothelial cells (HUVEC) (P35968 20-1356): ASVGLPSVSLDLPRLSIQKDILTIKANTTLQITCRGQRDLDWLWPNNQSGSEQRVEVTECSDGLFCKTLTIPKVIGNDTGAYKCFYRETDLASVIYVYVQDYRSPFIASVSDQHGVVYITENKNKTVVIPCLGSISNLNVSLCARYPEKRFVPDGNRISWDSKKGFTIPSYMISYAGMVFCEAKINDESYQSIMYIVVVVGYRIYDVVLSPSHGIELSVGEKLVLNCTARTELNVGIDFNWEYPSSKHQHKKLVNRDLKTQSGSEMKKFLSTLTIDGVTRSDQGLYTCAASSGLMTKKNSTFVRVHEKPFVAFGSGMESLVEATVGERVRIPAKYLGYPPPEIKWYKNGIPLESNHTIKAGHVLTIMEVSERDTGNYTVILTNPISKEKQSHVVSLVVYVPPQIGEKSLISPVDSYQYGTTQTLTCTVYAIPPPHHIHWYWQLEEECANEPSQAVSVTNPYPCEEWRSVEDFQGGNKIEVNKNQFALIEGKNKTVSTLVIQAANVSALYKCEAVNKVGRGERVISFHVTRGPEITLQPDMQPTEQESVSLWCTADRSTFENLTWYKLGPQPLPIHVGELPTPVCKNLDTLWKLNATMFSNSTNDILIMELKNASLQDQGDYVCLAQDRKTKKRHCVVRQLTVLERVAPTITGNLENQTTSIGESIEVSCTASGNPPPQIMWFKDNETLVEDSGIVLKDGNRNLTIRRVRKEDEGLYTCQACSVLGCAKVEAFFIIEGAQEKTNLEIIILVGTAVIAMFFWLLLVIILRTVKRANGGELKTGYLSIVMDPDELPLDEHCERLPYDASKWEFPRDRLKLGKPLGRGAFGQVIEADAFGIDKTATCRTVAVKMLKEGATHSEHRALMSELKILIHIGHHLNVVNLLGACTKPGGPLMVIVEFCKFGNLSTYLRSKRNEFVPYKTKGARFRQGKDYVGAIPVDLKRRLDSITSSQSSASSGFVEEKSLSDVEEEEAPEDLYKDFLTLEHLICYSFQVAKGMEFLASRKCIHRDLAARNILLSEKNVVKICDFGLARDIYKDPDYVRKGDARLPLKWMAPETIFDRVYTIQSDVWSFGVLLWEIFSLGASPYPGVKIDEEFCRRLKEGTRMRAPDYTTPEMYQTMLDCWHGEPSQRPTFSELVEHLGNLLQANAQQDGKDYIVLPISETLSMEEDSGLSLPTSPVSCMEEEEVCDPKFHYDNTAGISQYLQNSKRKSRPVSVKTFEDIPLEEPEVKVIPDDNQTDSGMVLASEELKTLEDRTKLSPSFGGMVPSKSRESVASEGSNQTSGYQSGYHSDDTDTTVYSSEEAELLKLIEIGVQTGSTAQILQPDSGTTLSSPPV

B1: scFv p1C11 (scFv)
scFv: QVKLQQSGAELVGSGASVKLSCTTSGFNIKDFYMHWVKQRPEQGLEWIGWIDPENGDSDYAPKFQGKATMTADSSSNTAYLQLSSLTSEDTAVYYCNAYYGDYEGYWGQGTTVTVSSGGGGSGGGGSGGGGSDIELTQSPAIMSASPGEKVTITCSASSSVSYMHWFQQKPGTSPKLWIYSTSNLASGVPARFSGSGSGTSYSLTISRMEAEDAATYYCQQRSSYPFTFGSGTKLEIK
notes: soluble form made in E. coli; also called KDR-specific scFv p1C11
On to B1, for which, in assay [1], the “VEGF-stimulated HUVEC mitogenesis ([3H]-TdR incorporation), IC50” value is approximately 2 nM. Further, the binding result with Flt-1-Fc fusion protein [2] is on record as “no binding (tested: about 50 nM)”. In assay [3], binding was put at a Kd of 1.68 nM; the off-rate constant (koff) (as a rule, the rate constant with which the complex falls apart) is 0.000121 s⁻¹; the kon (in general, the rate constant with which the complex forms) came to 74200 M⁻¹ s⁻¹. For the same molecule, the 50% effective concentration (EC50 (read off the curve)) (as a rule, the concentration at which the effect is half-maximal) in assay [4] is approximately 0.4 nM.

B2: scFv 6.12 (scFv, not shown: small tags and cut ends)
scFv: QVKLQQSGAELVKPGASVKLSCTASGFNIKDTYIHWVKQSPEQGLEWIGRIDPPNDNTKYDPKFQGKATITADTSSNTAYMQLRSLTSEDTAVYYCALPPFYFDYWGHGTTVTVSSGGGGSGGGGSGGGGSDIELTQSPKFMSTSVGDRVSVTCKASQNVDTNVAWYQQKPGQSPKALIYSASYRYSGVPDRFTGSGSGTDFTLTISNVQSEDLAEYFCQQYNSFPYTFGGGTKLEIK
modifications: The soluble scFv from pCANTAB 5E carried a C-terminal E tag (detected with anti-E tag) whose letters the patent does not give; it is left out.
notes: VH-(GGGGS)3-VL, expressed from pCANTAB 5E in E. coli
As for B2, in the assay with Flt-1-Fc fusion protein [2], the “EC50 (read off the curve)” value is approximately 0.6 nM. In addition, in the assay with Flt-1-Fc fusion protein [5], the Kd (usually the constant that tells how readily two partners part at equilibrium) was determined as 9.8 nM, the koff is 0.00236 s⁻¹ and the on-rate constant (kon) came out at 241000 M⁻¹ s⁻¹. In addition, the “IC50 (read off the curve)” value in the assay with Flt-1-Fc fusion protein [6] was approximately 1 nM.
